Source: IntAct's records for PubMed 20173330

Each substance was assayed against jip4_mouse Spag9 (UniProt Q58A65).
Chain of UniProt Q58A65 (Q58A65 whole entry): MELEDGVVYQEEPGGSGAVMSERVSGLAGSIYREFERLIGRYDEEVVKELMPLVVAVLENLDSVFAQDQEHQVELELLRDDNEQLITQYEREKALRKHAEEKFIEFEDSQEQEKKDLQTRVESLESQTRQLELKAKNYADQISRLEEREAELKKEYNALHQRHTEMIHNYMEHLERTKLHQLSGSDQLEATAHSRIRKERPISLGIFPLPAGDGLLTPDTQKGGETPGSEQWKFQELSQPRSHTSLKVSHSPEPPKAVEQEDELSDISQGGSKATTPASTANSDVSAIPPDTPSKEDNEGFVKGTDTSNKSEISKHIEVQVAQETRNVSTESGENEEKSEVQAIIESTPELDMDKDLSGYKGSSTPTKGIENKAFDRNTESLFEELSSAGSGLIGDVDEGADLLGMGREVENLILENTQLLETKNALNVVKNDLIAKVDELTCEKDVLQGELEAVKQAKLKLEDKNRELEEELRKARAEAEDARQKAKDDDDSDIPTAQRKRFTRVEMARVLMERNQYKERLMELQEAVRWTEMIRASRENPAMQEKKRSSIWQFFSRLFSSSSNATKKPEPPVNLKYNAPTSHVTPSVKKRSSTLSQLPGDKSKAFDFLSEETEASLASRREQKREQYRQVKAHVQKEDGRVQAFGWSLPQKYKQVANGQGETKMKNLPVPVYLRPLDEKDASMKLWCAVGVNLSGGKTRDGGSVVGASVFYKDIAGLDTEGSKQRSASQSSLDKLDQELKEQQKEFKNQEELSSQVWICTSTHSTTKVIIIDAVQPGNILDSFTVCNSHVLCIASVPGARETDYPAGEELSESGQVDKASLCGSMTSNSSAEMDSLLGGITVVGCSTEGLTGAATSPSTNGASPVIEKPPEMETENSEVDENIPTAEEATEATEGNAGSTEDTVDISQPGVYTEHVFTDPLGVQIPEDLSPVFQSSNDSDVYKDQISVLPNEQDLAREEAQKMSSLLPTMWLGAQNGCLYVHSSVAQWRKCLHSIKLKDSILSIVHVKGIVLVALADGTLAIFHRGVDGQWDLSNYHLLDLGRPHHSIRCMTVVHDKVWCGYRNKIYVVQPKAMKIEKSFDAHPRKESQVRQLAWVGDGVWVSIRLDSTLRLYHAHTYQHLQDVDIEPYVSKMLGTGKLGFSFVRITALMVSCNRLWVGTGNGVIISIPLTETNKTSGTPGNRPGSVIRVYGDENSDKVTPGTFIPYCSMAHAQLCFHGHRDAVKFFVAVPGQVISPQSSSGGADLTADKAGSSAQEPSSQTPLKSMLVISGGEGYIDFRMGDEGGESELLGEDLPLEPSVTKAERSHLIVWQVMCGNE

Substance	effect of a mutation on the interaction
Leucine-rich repeat serine/threonine-protein kinase 2 (Homo sapiens), Q5S007 G2019S	increasing interaction
Leucine-rich repeat serine/threonine-protein kinase 2 (Homo sapiens), Q5S007 I2020T	increasing interaction
Leucine-rich repeat serine/threonine-protein kinase 2 (Homo sapiens), Q5S007 Y1699C	decreasing interaction
Leucine-rich repeat serine/threonine-protein kinase 2 (Homo sapiens), Q5S007 R1441C	increasing interaction
